Assay results as given in publication PMC8920847.

Biological target: His-tagged recombinant AjBNIP3 (rAjBNIP3) (Apostichopus japonicus)
Test: MST

## Recombinant His-AjLC3 (natural protein)
  Kd: 2820 nM
